Experimental data published in EP1757701A1.

Experiments:
[1] = molecular target: Y0317-570 Fab; test: BIAcore; estimated from the observed koff with an assumed kon
[2] = molecular target: Y0317-570 Fab; test: BIAcore, 1:1 Langmuir model: Herceptin dissociating from Y0317-570 Fab held on immobilized VEGF

4D5-IgG, also known as Herceptin® (antibody)
Kd [1]: 0.03 to 0.3 µM
dissociation half-life (t1/2) [2]: 8.5 min
